{"source": "patent US20260167740A1", "about": "“MEANS AND METHODS FOR TREATING CASTRATION-RESISTANT PROSTATE CANCER” (Merus N.V., priority 2022, published 2026)", "type_in_all_cases": "in vivo, human", "key": {"[1]": {"assay": "Single-agent treatment of over 100 patients with MF3958×MF3178: tolerability and immunogenicity"}, "[2]": {"system": "castration-resistant prostate cancer", "assay": "Phase II clinical study of zenocutuzumab with an AR axis-targeting agent in mCRPC patients: tumor response (RECIST v1.1 / PCWG3)", "excerpt": "(§1) This is a Phase II, open-label, multicenter, international study designed to evaluate the efficacy of zenocutuzumab in patients with metastatic mCRPC with evidence of disease progression in accordance with Prostate Cancer Clinical Trials Working Group 3 (PCWG3) criteria on the last line of prior hormonal therapy that included either the second-generation AR antagonist enzalutamide or the androgen synthesis inhibitor abiraterone acetate. Patients will be enrolled and will receive zenocutuzumab in combination with the AR targeting agent on which they experienced disease progression immediately before study entry. A cohort of patients with […] and tensin homolog (PTEN) wild-type status will be enrolled. A safety run-in will be performed in the first 4 to 6 patients.\n(§2) Zenocutuzumab will be administered as a 2-hour IV infusion on Day 1, then Q2W of every 28-day cycle. A flat dose of 750 mg will be administered.\n(§3) Patients will receive zenocutuzumab in combination with one of the following next generation AR signaling inhibitors that the patient was receiving immediately prior to entering the study: • Abiraterone acetate (ZYTIGA®) 1000 mg PO QD in combination with prednisone 5 mg PO twice daily (BID). • Enzalutamide (XTANDIR) 160 mg PO QD.\n(§4) Eligible patients will be enrolled and will receive sequential treatment cycles, with a treatment cycle being 4 weeks (28 days). All patients will receive zenocutuzumab with a flat dose of 750 mg IV Q2W.\nRadiological measurement of tumors to assess antitumor effect of zenocutuzumab will be performed by CT scan or MRI. Imaging will be performed according to standard local practice and data will be collected in the electronic case report form. Imaging of all patients will be assessed by the local investigator.\nWhole body bone scintigraphy will be performed every 8 weeks for the first 12 months of treatment and every 12 weeks thereafter. Tumor assessments will be completed according to PCWG3-modified RECIST criteria.\n(§5) Following the clinical trial protocol of Example 2, mCRPC patients with histologically confirmed prostate adenocarcinoma were enrolled. Patients who were progressing on either abiraterone acetate or enzalutamide were continued on their backbone AR axis-targeting agents after study enrollment and received treatment with zenocutuzumab in combination. Sites of metastatic involvement included lymph nodes, bone, and/or visceral organs. PTEN status of tumors was established in patients by IHC when sufficient biological material was available, using Roche Ventana Optiview kit DAB and SP218 PTEN antibody using Benchmark Ultra immunohistochemical automated slide stainer. The OptiView DAB IHC Detection Kit (OptiView) is an indirect, biotin-free system for detecting mouse IgG, mouse IgM and rabbit primary antibodies. The kit is intended to identify targets by IHC in sections of formalin-fixed, paraffin-embedded and frozen tissue that are stained on the VENTANA automated slide stainers and visualized by light microscopy. The clinical interpretation of any staining, or the absence of staining, is complemented by morphological studies and evaluation of proper controls."}, "[3]": {"assay": "Phase II clinical study of zenocutuzumab with an AR axis-targeting agent in mCRPC patients: safety", "settings": "cohort of ten mCRPC patients", "excerpt": "as §1, §2, §3, §4, §5\nAmong a cohort of ten patients treated, treatment-emergent adverse events (TEAE) related to study treatment classified as a Grade 3 TEAE or higher were not observed."}, "[4]": {"settings": "Example 4: person with mCRPC, combination with enzalutamide, 6 months"}, "[5]": {"settings": "Example 5: person with mCRPC, PTEN loss, combination with abiraterone acetate/prednisone, 4 months"}, "[6]": {"settings": "zenocutuzumab in combination with abiraterone acetate or enzalutamide"}}}
{"substance": "zenocutuzumab: Full length IgG1 bispecific antibody comprising MF3958×MF3178, targeting ERBB2 and ERBB3", "values": [{"measurement": "risk for immunogenicity", "setting": "[1]", "result": "low risk for immunogenicity"}, {"measurement": "tolerability as a single agent", "setting": "[1]", "result": "well tolerated"}, {"measurement": "radiographic progression (lymph node)", "setting": "[2]; Example 4: combination with enzalutamide, after six months of on-going treatment", "result": "no evidence of lymph node progression"}, {"measurement": "best overall response by RECIST", "setting": "[2]; [4]", "result": "stable disease"}, {"measurement": "response by bone scans by PCWG3", "setting": "[2]; [4]", "result": "no evidence of disease (NED)"}, {"measurement": "radiographic progression (lymph node or bone)", "setting": "[2]; Example 5: combination with abiraterone acetate/prednisone, after five months of on-going treatment", "result": "no evidence of lymph node or bone progression"}, {"measurement": "best overall response by RECIST", "setting": "[2]; [5]", "result": "stable disease"}, {"measurement": "response by bone scans by PCWG3", "setting": "[2]; [5]", "result": "stable disease"}, {"measurement": "best overall response by measurement of target lesions (lymph nodes) under RECIST v1.1 per investigator", "setting": "[2]; Example 6: person with mCRPC, PTEN wildtype, combination with enzalutamide", "result": "stable disease"}, {"measurement": "treatment-emergent adverse events (TEAE) related to study treatment classified as Grade 3 TEAE or higher", "setting": "[3]; zenocutuzumab 750 mg IV Q2W in combination with abiraterone acetate or enzalutamide", "result": "not observed"}, {"measurement": "infusion-related reactions (IRR) reported", "setting": "[3]; [6]", "result": "a single IRR was reported (i.e. Grade 2, related)"}, {"measurement": "safety concerns", "setting": "[3]; [6]", "result": "no safety concerns"}, {"measurement": "tolerability of the combination", "setting": "[3]; [6]", "result": "very well tolerated"}, {"measurement": "treatment discontinuation due to an adverse event", "setting": "[3]; [6]", "result": "no treatment discontinuation"}, {"measurement": "unexpected signals of toxicity", "setting": "[3]; [6]", "result": "nor were any unexpected signals of toxicity reported"}]}
